# Measured values reported in US20070202103A1 (EMD LEXIGEN RESEARCH CENTER, published 2007).
# Where “and” joins values, the source holds several entries; their conditions need not be identical. Equal entries are not always repeated.
# B1: huBC1-IL12 (BC1-IL12 fusion protein of Example 2) (protein, part only; not given: constant regions and IL-12 subunits, not shown: a dimerising Fc or GST)
# heavy, part: EVQLVQSGADVKKPGASVKVSCKASGYTFTNYVMHWVRQAPGQGLEWLGYINPYNDGTQYNERFKGRVTMTGDTSISTAYMELSRLTSDDTAVYYCAREVYGNYIWGNWGQGTLVSVSS
# light: EIVLTQSPGTLSLSPGERATLSCSASSSISSNYLHWYQQKPGQAPRLLIYRTSNLASGIPDRFSGSGSGTDFTLTISRLEPEDFAVYYCQQGSSIPFTFGQGTKLEIKRTVAAPSVFIFPPSDEQLKSGTASVVCLLNNFYPREAKVQWKVDNALQSGNSQESVTEQDSKDSTYSLSSTLTLSKADYEKHKVYACEVTHQGLSSPVTKSFNRGEC
# B2: huBC1 (humanised BC1 antibody, human constant regions) (antibody, V domains shown)
# VH: B1 heavy, part
# VL: EIVLTQSPGTLSLSPGERATLSCSASSSISSNYLHWYQQKPGQAPRLLIYRTSNLASGIPDRFSGSGSGTDFTLTISRLEPEDFAVYYCQQGSSIPFTFGQGTKLEIK
# notes: Only variable domains are tied to the unfused antibody; also called huBC1 antibody; HuBC1 Ab
# How the values were obtained:
# [1] = target: polypeptide including human fibronectin domains 7, ED-B, 8, and 9 (human) (UniProt P02751); test: SPR
# [2] = target: polypeptide including human fibronectin domains 7, ED-B, 8, and 9 (human) (UniProt P02751); test: SPR, experiment 2
# [3] = target: recombinant oncofoetal fibronectin FN7B89 (Fn MRGS-7B89-HHHHHH) (human); test: SPR kinetics, FN7B89 on chip, bivalent fit
# [4] = target: polypeptide including human fibronectin domains 7, ED-B, 8, and 9 (human) (UniProt P02751); test: SPR, against huBC1
# [5] = target: polypeptide including human fibronectin domains 7, ED-B, 8, and 9 (human) (UniProt P02751); test: SPR, experiment 2; exp. 2
# [6] = target: polypeptide including human fibronectin domains 7, ED-B, 8, and 9 (human) (UniProt P02751); test: SPR, experiment 1
# [7] = target: polypeptide including human fibronectin domains 7, ED-B, 8, and 9 (human) (UniProt P02751); test: SPR, experiment 1; exp. 1
# [8] = target: T1, polypeptide including human fibronectin domains 7, ED-B, 8, and 9 (human, UniProt P02751 1173-1538, limits assumed); test: SPR, experiment 1
# T1 construct: domain: fibronectin domains 7, ED-B, 8, and 9
# [9] = target: recombinant oncofoetal fibronectin FN7B89 (Fn MRGS-7B89-HHHHHH) (human); test: SPR kinetics, against muBC1
# [10] = target: T1, polypeptide including human fibronectin …; test: SPR, experiment 1; exp. 1
# [11] = target: T1, polypeptide including human fibronectin …; test: SPR, experiment 2
# [12] = target: T1, polypeptide including human fibronectin …; test: SPR, experiment 2; exp. 2
# polypeptide including human fibronectin domains 7, ED-B, 8, and 9 (human), sequence (P02751 1173-1538 limits assumed): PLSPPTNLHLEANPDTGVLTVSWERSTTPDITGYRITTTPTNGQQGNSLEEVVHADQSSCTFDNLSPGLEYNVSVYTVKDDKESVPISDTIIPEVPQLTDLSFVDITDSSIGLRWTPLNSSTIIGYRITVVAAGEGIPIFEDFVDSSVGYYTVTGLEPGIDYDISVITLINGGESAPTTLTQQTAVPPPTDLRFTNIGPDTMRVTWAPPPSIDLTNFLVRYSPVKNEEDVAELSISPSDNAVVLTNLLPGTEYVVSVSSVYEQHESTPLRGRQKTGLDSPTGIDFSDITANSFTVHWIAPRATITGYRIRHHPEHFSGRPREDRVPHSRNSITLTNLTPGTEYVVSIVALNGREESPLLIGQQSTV
# T1 sequence (P02751 1173-1538 limits assumed): as above
Molecule,koff [2],kon [2],Kd [3],koff [3],kon [3],other results
muBC1 (murine constant regions) (antibody),0.0011 s⁻¹,1650 M⁻¹ s⁻¹,377 nM,0.00065 s⁻¹,1700 M⁻¹ s⁻¹,Kd [1]: 686 nM
huBC1-huIL12 (humanised BC1 antibody-human IL12 fusion protein) (from UniProt P29460 23-328),,,17.3 nM,0.00087 s⁻¹,50900 M⁻¹ s⁻¹,
huBC1-muIL12 (HuBC1-g1-M1-muIL12) (from UniProt P43431 23-215; P43432 23-335),,,13.9 nM,0.00109 s⁻¹,79500 M⁻¹ s⁻¹,
B1,0.0016 s⁻¹,19000 M⁻¹ s⁻¹,,,,fold tighter binding than the huBC1 antibody alone [4]: > 10 fold and 16 fold; Kd [5]: 8.3 nM; koff [6]: 0.0013 s⁻¹; kon [6]: 17000 M⁻¹ s⁻¹; Kd [7]: 7.6 nM
B2,,,54 nM,0.00312 s⁻¹,57600 M⁻¹ s⁻¹,koff [8]: 0.0078 s⁻¹; kon [8]: 62000 M⁻¹ s⁻¹; fold faster off-rate than muBC1 [9]: 5 fold; fold faster on-rate than muBC1 [9]: 34 fold; Kd [10]: 125 nM; koff [11]: 0.01 s⁻¹; kon [11]: 73000 M⁻¹ s⁻¹; Kd [12]: 138 nM
